Positions count from the first letter of the chain named.
Experiments:
[1] = biological target: T1, Human PTK7 Protein, His Tag, Acro Biosystems (human, UniProt Q13308 31-704); test: BLI (Octet), antibody on anti-human Fc sensor, 50 nM PTK7 at pH 7.4, dissociation at pH 7.4 or 5.4; 2 = substantially similar binding relative to parent
T1 construct: Bought recombinant protein; also called CCK4; not shown: His tag
T1 sequence: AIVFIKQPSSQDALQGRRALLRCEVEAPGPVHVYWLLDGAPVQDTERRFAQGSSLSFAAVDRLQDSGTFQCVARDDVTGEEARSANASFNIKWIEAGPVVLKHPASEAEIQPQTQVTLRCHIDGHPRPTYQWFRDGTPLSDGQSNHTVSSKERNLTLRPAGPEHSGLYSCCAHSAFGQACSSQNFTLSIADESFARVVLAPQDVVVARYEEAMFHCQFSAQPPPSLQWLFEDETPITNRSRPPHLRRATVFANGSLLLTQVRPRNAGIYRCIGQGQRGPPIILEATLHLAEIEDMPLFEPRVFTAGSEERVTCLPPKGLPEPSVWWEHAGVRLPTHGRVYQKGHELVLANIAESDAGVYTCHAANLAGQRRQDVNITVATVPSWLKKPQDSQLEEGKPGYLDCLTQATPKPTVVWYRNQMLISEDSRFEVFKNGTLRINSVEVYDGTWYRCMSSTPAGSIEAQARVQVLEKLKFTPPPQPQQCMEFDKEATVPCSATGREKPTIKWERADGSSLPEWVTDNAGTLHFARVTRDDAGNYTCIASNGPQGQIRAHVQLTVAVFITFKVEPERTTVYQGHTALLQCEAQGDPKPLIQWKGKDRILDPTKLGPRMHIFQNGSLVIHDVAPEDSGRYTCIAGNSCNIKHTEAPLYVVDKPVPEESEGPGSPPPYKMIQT

[2] = biological target: T2, Human PTK7 Protein, His Tag (Acro Biosystems) (human, UniProt Q13308 31-704); test: BLI (Octet), antibody on anti-human Fc sensor, 50 nM PTK7; 1 = pH dependent binding
T2 construct: Bought His-tagged recombinant human PTK7; also called CCK4; Tyrosine-protein kinase-like 7
T2 sequence: T1 sequence

B1: MYT10904 (antibody, V domains shown)
VH: EVQLVESGGGLVQPGGSLRLSCTASGFSLSNYVMNWVRQAPGKGLEWVGIIDSSGSTYHASWAKGRFTISRDTSKNTVYLQMNSLRAEDTAVYFCARGLYLWGQGTLVTVSS
VL: EIVMTQSPSTLSASVGDRVIITCQSSQSVYNNNLLAWYQQKPGKAPKLLIYYTSNLASGVPSRFSGSGSGAEFTLTISSLQPDDFATYYCQGGYNGNIYAFGQGTKLTVL
notes: MYT9345 variant, His at VH pos 59 (H2 10)
binding result [1]: binds

B2: MYT10906 (antibody, V domains shown)
VH: B1 VH with H59Y, S61H
VL: B1 VL
notes: MYT9345 variant, His at VH pos 61 (H2 12)
binding result [1]: binds

B3: MYT10915 (antibody, V domains shown)
VH: B1 VH with H59Y, Y100H
VL: B1 VL
notes: MYT9345 variant, His at VH pos 100 (H3 05)
binding result [1]: binds

B4: MYT10910 (antibody, V domains shown)
VH: B1 VH with H59Y, G65H
VL: B1 VL
notes: MYT9345 variant, His at VH pos 65 (H2 16)
binding result [1]: binds

B5: MYT10922 (antibody, V domains shown)
VH: B1 VH with H59Y
VL: B1 VL with Q27H
notes: MYT9345 variant, His at VL pos 27 (L1 04)
binding result [1]: binds

B6: MYT10907 (antibody, V domains shown)
VH: B1 VH with H59Y, W62H
VL: B1 VL
notes: MYT9345 variant, His at VH pos 62 (H2 13)
binding result [1]: binds

B7: MYT10947 (antibody, V domains shown)
VH: B1 VH with H59Y
VL: B1 VL with Y99H
notes: MYT9345 variant, His at VL pos 99 (L3 09)
binding result [1]: binds

B8: MYT10931 (antibody, V domains shown)
VH: B1 VH with H59Y
VL: B1 VL with A36H
notes: MYT9345 variant, His at VL pos 36 (L1 13)
binding result [1]: binds

B9: MYT10941 (antibody, V domains shown)
VH: B1 VH with H59Y
VL: B1 VL with G93H
notes: MYT9345 variant, His at VL pos 93 (L3 03)
binding result [1]: binds

B10: MYT10912 (antibody, V domains shown)
VH: B1 VH with H59Y, R97H
VL: B1 VL
notes: MYT9345 variant, His at VH pos 97 (H3 02)
binding result [1]: binds

B11: MYT10932 (antibody, V domains shown)
VH: B1 VH with H59Y
VL: B1 VL with Y52H
notes: MYT9345 variant, His at VL pos 52 (L2 01)
binding result [1]: binds

B12: MYT10923 (antibody, V domains shown)
VH: B1 VH with H59Y
VL: B1 VL with S28H
notes: MYT9345 variant, His at VL pos 28 (L1 05)
binding result [1]: binds

B13: MYT10908 (antibody, V domains shown)
VH: B1 VH with H59Y, A63H
VL: B1 VL
notes: MYT9345 variant, His at VH pos 63 (H2 14)
binding result [1]: binds

B14: MYT10909 (antibody, V domains shown)
VH: B1 VH with H59Y, K64H
VL: B1 VL
notes: MYT9345 variant, His at VH pos 64 (H2 15)
binding result [1]: binds

B15: MYT10945 (antibody, V domains shown)
VH: B1 VH with H59Y
VL: B1 VL with N97H
notes: MYT9345 variant, His at VL pos 97 (L3 07)
binding result [1]: binds

B16: MYT10938 (antibody, V domains shown)
VH: B1 VH with H59Y
VL: B1 VL with S58H
notes: MYT9345 variant, His at VL pos 58 (L2 07)
binding result [1]: binds

B17: MYT10921 (antibody, V domains shown)
VH: B1 VH with H59Y
VL: B1 VL with S26H
notes: MYT9345 variant, His at VL pos 26 (L1 03)
binding result [1]: binds

B18: MYT10914 (antibody, V domains shown)
VH: B1 VH with H59Y, L99H
VL: B1 VL
notes: MYT9345 variant, His at VH pos 99 (H3 04)
binding result [1]: binds

B19: MYT10948 (antibody, V domains shown)
VH: B1 VH with H59Y
VL: B1 VL with A100H
notes: MYT9345 variant, His at VL pos 100 (L3 10)
binding result [1]: binds

B20: MYT10940 (antibody, V domains shown)
VH: B1 VH with H59Y
VL: B1 VL with G92H
notes: MYT9345 variant, His at VL pos 92 (L3 02)
binding result [1]: binds

B21: MYT10929 (antibody, V domains shown)
VH: B1 VH with H59Y
VL: B1 VL with L34H
notes: MYT9345 variant, His at VL pos 34 (L1 11)
binding result [1]: binds

B22: MYT10924 (antibody, V domains shown)
VH: B1 VH with H59Y
VL: B1 VL with V29H
notes: MYT9345 variant, His at VL pos 29 (L1 06)
binding result [1]: binds

B23: MYT10919 (antibody, V domains shown)
VH: B1 VH with H59Y
VL: B1 VL with Q24H
notes: MYT9345 variant, His at VL pos 24 (L1 01)
binding result [1]: binds

B24: MYT10934 (antibody, V domains shown)
VH: B1 VH with H59Y
VL: B1 VL with S54H
notes: MYT9345 variant, His at VL pos 54 (L2 03)
binding result [1]: binds

B25: MYT10933 (antibody, V domains shown)
VH: B1 VH with H59Y
VL: B1 VL with T53H
notes: MYT9345 variant, His at VL pos 53 (L2 02)
binding result [1]: binds

B26: MYT10951 (antibody, V domains shown)
VH: EVQLVESGGGLVQPGGSLRLSCTASHFSLSSYAMGWVRQAPGKGLEWVGFINAGGNTYYANWAKGRFTISRDTSKNTVYLQMNSLRAEDTAVYFCARRYSRASGWYDLWGQGTLVTVSS
VL: EIVMTQSPSTLSASVGDRVIITCQASQSISSYLAWYQQKPGKAPKLLIYAASTLASGVPSRFSGSGSGAEFTLTISSLQPDDFATYYCQSYSYSSGIDYGDVFGQGTKLTVL
notes: MYT9359 HC variant; captured on anti-human Fc sensor
binding result [2]: binds

B27: MYT10997 (antibody, V domains shown)
VH: B26 VH with H26G
VL: B26 VL with I29H
notes: MYT9359 LC variant; captured on anti-human Fc sensor
binding result [2]: binds

B28: MYT10966 (antibody, V domains shown)
VH: B26 VH with H26G, G55H
VL: B26 VL
notes: as for B26
binding result [2]: binds

B29: MYT10991 (antibody, V domains shown)
VH: B26 VH with H26G, D107A
VL: B26 VL
notes: MYT9359 HC alanine variant; captured on anti-human Fc sensor
binding result [2]: binds

B30: MYT10993 (antibody, V domains shown)
VH: B26 VH with H26G
VL: B26 VL with A25H
notes: as for B27
binding result [2]: binds

B31: MYT10970 (antibody, V domains shown)
VH: B26 VH with H26G, Y59H
VL: B26 VL
notes: as for B26
binding result [2]: binds

B32: MYT10957 (antibody, V domains shown)
VH: B26 VH with H26G, Y32H
VL: B26 VL
notes: as for B26
binding result [2]: binds

B33: MYT10963 (antibody, V domains shown)
VH: B26 VH with H26G, N52H
VL: B26 VL
notes: as for B26
binding result [2]: binds

B34: MYT10974 (antibody, V domains shown)
VH: B26 VH with H26G, A63H
VL: B26 VL
notes: as for B26
binding result [2]: binds

B35: MYT10978 (antibody, V domains shown)
VH: B26 VH with H26G, R97H
VL: B26 VL
notes: as for B26
binding result [2]: binds

B36: MYT10962 (antibody, V domains shown)
VH: B26 VH with H26G, I51H
VL: B26 VL
notes: as for B26
binding result [2]: binds

B37: MYT10980 (antibody, V domains shown)
VH: B26 VH with H26G, Y99H
VL: B26 VL
notes: as for B26
binding result [2]: binds

B38: MYT10959 (antibody, V domains shown)
VH: B26 VH with H26G, M34H
VL: B26 VL
notes: as for B26
binding result [2]: binds

B39: MYT10969 (antibody, V domains shown)
VH: B26 VH with H26G, Y58H
VL: B26 VL
notes: as for B26
binding result [2]: binds

— patent US20260209386A1 (MYTHIC THERAPEUTICS, published 2026)
